# Results published in patent US20230002460A1 (YUHAN, published 2023).
# Target: GDF15 receptors GFRAL and RET, overexpressed together on HEK293 cells (UniProt Q6UXV0 19-394; P07949 29-1114, limits assumed)
# Assay: cell-based or functional assay
# Sequence of GDF15 receptors GFRAL and RET, overexpressed together on HEK293 cells (Q6UXV0 19-394 limits assumed, chain 1 of 2): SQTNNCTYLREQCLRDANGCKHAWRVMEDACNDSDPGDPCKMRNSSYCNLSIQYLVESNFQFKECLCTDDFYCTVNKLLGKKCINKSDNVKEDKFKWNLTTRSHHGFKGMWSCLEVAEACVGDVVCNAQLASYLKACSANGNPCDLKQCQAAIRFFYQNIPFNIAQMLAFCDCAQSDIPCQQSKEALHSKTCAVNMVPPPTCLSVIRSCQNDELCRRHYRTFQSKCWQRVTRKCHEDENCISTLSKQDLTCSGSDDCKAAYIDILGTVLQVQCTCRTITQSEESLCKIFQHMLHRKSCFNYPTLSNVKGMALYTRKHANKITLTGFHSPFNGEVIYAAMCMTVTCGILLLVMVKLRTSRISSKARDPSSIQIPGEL
# Sequence of GDF15 receptors GFRAL and RET, overexpressed together on HEK293 cells (P07949 29-1114 limits assumed, chain 2 of 2): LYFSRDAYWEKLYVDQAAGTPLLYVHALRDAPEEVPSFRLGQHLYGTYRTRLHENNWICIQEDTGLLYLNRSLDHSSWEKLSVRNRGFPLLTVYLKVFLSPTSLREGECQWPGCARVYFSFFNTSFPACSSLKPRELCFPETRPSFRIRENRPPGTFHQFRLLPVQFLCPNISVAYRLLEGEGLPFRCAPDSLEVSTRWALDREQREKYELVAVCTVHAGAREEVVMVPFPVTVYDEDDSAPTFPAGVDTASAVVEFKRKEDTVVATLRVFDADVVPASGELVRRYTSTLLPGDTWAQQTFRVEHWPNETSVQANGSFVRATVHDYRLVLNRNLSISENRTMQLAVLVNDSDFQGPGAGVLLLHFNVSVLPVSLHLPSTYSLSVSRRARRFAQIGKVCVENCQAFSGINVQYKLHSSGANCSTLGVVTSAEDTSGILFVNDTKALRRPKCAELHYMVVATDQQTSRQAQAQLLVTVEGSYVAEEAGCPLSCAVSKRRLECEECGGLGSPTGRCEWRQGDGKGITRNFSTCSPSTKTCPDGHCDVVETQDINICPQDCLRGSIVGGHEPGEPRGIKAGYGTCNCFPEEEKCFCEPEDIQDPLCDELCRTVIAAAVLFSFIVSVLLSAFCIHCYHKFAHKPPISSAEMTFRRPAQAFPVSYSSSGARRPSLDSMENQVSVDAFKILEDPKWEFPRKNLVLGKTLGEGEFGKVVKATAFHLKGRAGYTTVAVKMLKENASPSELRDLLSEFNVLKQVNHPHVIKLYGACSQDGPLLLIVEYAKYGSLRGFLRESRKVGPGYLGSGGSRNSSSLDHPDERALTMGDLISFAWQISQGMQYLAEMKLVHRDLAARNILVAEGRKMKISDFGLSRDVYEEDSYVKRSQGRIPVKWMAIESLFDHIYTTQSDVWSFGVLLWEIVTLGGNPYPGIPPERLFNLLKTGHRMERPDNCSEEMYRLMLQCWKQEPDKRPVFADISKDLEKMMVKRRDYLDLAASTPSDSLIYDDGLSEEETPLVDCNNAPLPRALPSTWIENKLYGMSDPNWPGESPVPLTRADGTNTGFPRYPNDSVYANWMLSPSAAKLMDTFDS
Binder,EC50,Emax (%) [relative to FWT 100%]
"long-acting GDF15 fusion protein ΔN2, Q51H (Fc fusion) chain 1: APALAGGPSVFLFPPKPKDTLMISRTPEVTCVVVDVSHEDPEVKFNWYVDGVEVHNAKTKPREEQYNSTYRVVSVLTVLHQDWLNGKEYKCKVSNKALPAPIEKTISKAKGQPREPQVYTLPPSREEMTKNQVSLWCLVKGFYPSDIAVEWESNGQPENNYKTTPPVLDSDGSFFLYSKLTVDKSRWQQGNVFSCSVMHEALHNHYTQKSLSLSPGKGGGGSGGGGSGGGGSGGGGSGGGGSNGDHCPLGPGRCCRLHTVRASLEDLGWADWVLSPREVQVTMCIGACPSHFRAANMHAQIKTSLHRLKPDTVPAPCCVPASYNPMVLIQKTDTGVSLQTYDDLLAKDCHCI chain 2: not shown",24.1 nM,90.8%
"long-acting GDF15 fusion protein ΔN2, Q51E (Fc fusion) chain 1: APALAGGPSVFLFPPKPKDTLMISRTPEVTCVVVDVSHEDPEVKFNWYVDGVEVHNAKTKPREEQYNSTYRVVSVLTVLHQDWLNGKEYKCKVSNKALPAPIEKTISKAKGQPREPQVYTLPPSREEMTKNQVSLWCLVKGFYPSDIAVEWESNGQPENNYKTTPPVLDSDGSFFLYSKLTVDKSRWQQGNVFSCSVMHEALHNHYTQKSLSLSPGKGGGGSGGGGSGGGGSGGGGSGGGGSNGDHCPLGPGRCCRLHTVRASLEDLGWADWVLSPREVQVTMCIGACPSEFRAANMHAQIKTSLHRLKPDTVPAPCCVPASYNPMVLIQKTDTGVSLQTYDDLLAKDCHCI chain 2: not shown",44.2 nM,41.9%
"long-acting GDF15 fusion protein ΔN2, Q60L (Fc fusion) chain 1: APALAGGPSVFLFPPKPKDTLMISRTPEVTCVVVDVSHEDPEVKFNWYVDGVEVHNAKTKPREEQYNSTYRVVSVLTVLHQDWLNGKEYKCKVSNKALPAPIEKTISKAKGQPREPQVYTLPPSREEMTKNQVSLWCLVKGFYPSDIAVEWESNGQPENNYKTTPPVLDSDGSFFLYSKLTVDKSRWQQGNVFSCSVMHEALHNHYTQKSLSLSPGKGGGGSGGGGSGGGGSGGGGSGGGGSNGDHCPLGPGRCCRLHTVRASLEDLGWADWVLSPREVQVTMCIGACPSQFRAANMHALIKTSLHRLKPDTVPAPCCVPASYNPMVLIQKTDTGVSLQTYDDLLAKDCHCI chain 2: not shown",11.9 nM,96.3%
"long-acting GDF15 fusion protein ΔN2, D93N (Fc fusion) chain 1: APALAGGPSVFLFPPKPKDTLMISRTPEVTCVVVDVSHEDPEVKFNWYVDGVEVHNAKTKPREEQYNSTYRVVSVLTVLHQDWLNGKEYKCKVSNKALPAPIEKTISKAKGQPREPQVYTLPPSREEMTKNQVSLWCLVKGFYPSDIAVEWESNGQPENNYKTTPPVLDSDGSFFLYSKLTVDKSRWQQGNVFSCSVMHEALHNHYTQKSLSLSPGKGGGGSGGGGSGGGGSGGGGSGGGGSNGDHCPLGPGRCCRLHTVRASLEDLGWADWVLSPREVQVTMCIGACPSQFRAANMHAQIKTSLHRLKPDTVPAPCCVPASYNPMVLIQKTNTGVSLQTYDDLLAKDCHCI chain 2: not shown",22.6 nM,99.6%
"long-acting GDF15 fusion protein ΔN2, Q51L (Fc fusion) chain 1: APALAGGPSVFLFPPKPKDTLMISRTPEVTCVVVDVSHEDPEVKFNWYVDGVEVHNAKTKPREEQYNSTYRVVSVLTVLHQDWLNGKEYKCKVSNKALPAPIEKTISKAKGQPREPQVYTLPPSREEMTKNQVSLWCLVKGFYPSDIAVEWESNGQPENNYKTTPPVLDSDGSFFLYSKLTVDKSRWQQGNVFSCSVMHEALHNHYTQKSLSLSPGKGGGGSGGGGSGGGGSGGGGSGGGGSNGDHCPLGPGRCCRLHTVRASLEDLGWADWVLSPREVQVTMCIGACPSLFRAANMHAQIKTSLHRLKPDTVPAPCCVPASYNPMVLIQKTDTGVSLQTYDDLLAKDCHCI chain 2: not shown",15.2 nM,88.6%
"long-acting GDF15 fusion protein ΔN2, Q60N (Fc fusion) chain 1: APALAGGPSVFLFPPKPKDTLMISRTPEVTCVVVDVSHEDPEVKFNWYVDGVEVHNAKTKPREEQYNSTYRVVSVLTVLHQDWLNGKEYKCKVSNKALPAPIEKTISKAKGQPREPQVYTLPPSREEMTKNQVSLWCLVKGFYPSDIAVEWESNGQPENNYKTTPPVLDSDGSFFLYSKLTVDKSRWQQGNVFSCSVMHEALHNHYTQKSLSLSPGKGGGGSGGGGSGGGGSGGGGSGGGGSNGDHCPLGPGRCCRLHTVRASLEDLGWADWVLSPREVQVTMCIGACPSQFRAANMHANIKTSLHRLKPDTVPAPCCVPASYNPMVLIQKTDTGVSLQTYDDLLAKDCHCI chain 2: not shown",7 nM,43.5%
"long-acting GDF15 fusion protein ΔN2, Q51N (Fc fusion) chain 1: APALAGGPSVFLFPPKPKDTLMISRTPEVTCVVVDVSHEDPEVKFNWYVDGVEVHNAKTKPREEQYNSTYRVVSVLTVLHQDWLNGKEYKCKVSNKALPAPIEKTISKAKGQPREPQVYTLPPSREEMTKNQVSLWCLVKGFYPSDIAVEWESNGQPENNYKTTPPVLDSDGSFFLYSKLTVDKSRWQQGNVFSCSVMHEALHNHYTQKSLSLSPGKGGGGSGGGGSGGGGSGGGGSGGGGSNGDHCPLGPGRCCRLHTVRASLEDLGWADWVLSPREVQVTMCIGACPSNFRAANMHAQIKTSLHRLKPDTVPAPCCVPASYNPMVLIQKTDTGVSLQTYDDLLAKDCHCI chain 2: not shown",14.2 nM,87.8%
"long-acting GDF15 fusion protein ΔN2, D93L (Fc fusion) chain 1: APALAGGPSVFLFPPKPKDTLMISRTPEVTCVVVDVSHEDPEVKFNWYVDGVEVHNAKTKPREEQYNSTYRVVSVLTVLHQDWLNGKEYKCKVSNKALPAPIEKTISKAKGQPREPQVYTLPPSREEMTKNQVSLWCLVKGFYPSDIAVEWESNGQPENNYKTTPPVLDSDGSFFLYSKLTVDKSRWQQGNVFSCSVMHEALHNHYTQKSLSLSPGKGGGGSGGGGSGGGGSGGGGSGGGGSNGDHCPLGPGRCCRLHTVRASLEDLGWADWVLSPREVQVTMCIGACPSQFRAANMHAQIKTSLHRLKPDTVPAPCCVPASYNPMVLIQKTLTGVSLQTYDDLLAKDCHCI chain 2: not shown",9 nM,59.1%
"long-acting GDF15 fusion protein ΔN2, D93E (Fc fusion) chain 1: APALAGGPSVFLFPPKPKDTLMISRTPEVTCVVVDVSHEDPEVKFNWYVDGVEVHNAKTKPREEQYNSTYRVVSVLTVLHQDWLNGKEYKCKVSNKALPAPIEKTISKAKGQPREPQVYTLPPSREEMTKNQVSLWCLVKGFYPSDIAVEWESNGQPENNYKTTPPVLDSDGSFFLYSKLTVDKSRWQQGNVFSCSVMHEALHNHYTQKSLSLSPGKGGGGSGGGGSGGGGSGGGGSGGGGSNGDHCPLGPGRCCRLHTVRASLEDLGWADWVLSPREVQVTMCIGACPSQFRAANMHAQIKTSLHRLKPDTVPAPCCVPASYNPMVLIQKTETGVSLQTYDDLLAKDCHCI chain 2: not shown",6.5 nM,87.6%
"long-acting GDF15 fusion protein (dimer) FM5 + Fc_hole (ΔN2, S64K) (Fc fusion) chain 1: APALAGGPSVFLFPPKPKDTLMISRTPEVTCVVVDVSHEDPEVKFNWYVDGVEVHNAKTKPREEQYNSTYRVVSVLTVLHQDWLNGKEYKCKVSNKALPAPIEKTISKAKGQPREPQVYTLPPSREEMTKNQVSLWCLVKGFYPSDIAVEWESNGQPENNYKTTPPVLDSDGSFFLYSKLTVDKSRWQQGNVFSCSVMHEALHNHYTQKSLSLSPGKGGGGSGGGGSGGGGSGGGGSGGGGSNGDHCPLGPGRCCRLHTVRASLEDLGWADWVLSPREVQVTMCIGACPSQFRAANMHAQIKTKLHRLKPDTVPAPCCVPASYNPMVLIQKTDTGVSLQTYDDLLAKDCHCI chain 2: not shown",7.7 nM,147%

# Other lines, results leading:
EC50,Emax (%) [relative to FWT 100%],Binder
1.1 nM,12.3%,"long-acting GDF15 fusion protein ΔN2, T92E (Fc fusion) chain 1: APALAGGPSVFLFPPKPKDTLMISRTPEVTCVVVDVSHEDPEVKFNWYVDGVEVHNAKTKPREEQYNSTYRVVSVLTVLHQDWLNGKEYKCKVSNKALPAPIEKTISKAKGQPREPQVYTLPPSREEMTKNQVSLWCLVKGFYPSDIAVEWESNGQPENNYKTTPPVLDSDGSFFLYSKLTVDKSRWQQGNVFSCSVMHEALHNHYTQKSLSLSPGKGGGGSGGGGSGGGGSGGGGSGGGGSNGDHCPLGPGRCCRLHTVRASLEDLGWADWVLSPREVQVTMCIGACPSQFRAANMHAQIKTSLHRLKPDTVPAPCCVPASYNPMVLIQKEDTGVSLQTYDDLLAKDCHCI chain 2: not shown"
9.3 nM,10.5%,"long-acting GDF15 fusion protein ΔN2, Q90E (Fc fusion) chain 1: APALAGGPSVFLFPPKPKDTLMISRTPEVTCVVVDVSHEDPEVKFNWYVDGVEVHNAKTKPREEQYNSTYRVVSVLTVLHQDWLNGKEYKCKVSNKALPAPIEKTISKAKGQPREPQVYTLPPSREEMTKNQVSLWCLVKGFYPSDIAVEWESNGQPENNYKTTPPVLDSDGSFFLYSKLTVDKSRWQQGNVFSCSVMHEALHNHYTQKSLSLSPGKGGGGSGGGGSGGGGSGGGGSGGGGSNGDHCPLGPGRCCRLHTVRASLEDLGWADWVLSPREVQVTMCIGACPSQFRAANMHAQIKTSLHRLKPDTVPAPCCVPASYNPMVLIEKTDTGVSLQTYDDLLAKDCHCI chain 2: not shown"
7.9 nM,100%,"long-acting GDF15 fusion protein ΔN2, S64Q (Fc fusion) chain 1: APALAGGPSVFLFPPKPKDTLMISRTPEVTCVVVDVSHEDPEVKFNWYVDGVEVHNAKTKPREEQYNSTYRVVSVLTVLHQDWLNGKEYKCKVSNKALPAPIEKTISKAKGQPREPQVYTLPPSREEMTKNQVSLWCLVKGFYPSDIAVEWESNGQPENNYKTTPPVLDSDGSFFLYSKLTVDKSRWQQGNVFSCSVMHEALHNHYTQKSLSLSPGKGGGGSGGGGSGGGGSGGGGSGGGGSNGDHCPLGPGRCCRLHTVRASLEDLGWADWVLSPREVQVTMCIGACPSQFRAANMHAQIKTQLHRLKPDTVPAPCCVPASYNPMVLIQKTDTGVSLQTYDDLLAKDCHCI chain 2: not shown"
14.9 nM,112%,"long-acting GDF15 fusion protein ΔN2, T92S (Fc fusion) chain 1: APALAGGPSVFLFPPKPKDTLMISRTPEVTCVVVDVSHEDPEVKFNWYVDGVEVHNAKTKPREEQYNSTYRVVSVLTVLHQDWLNGKEYKCKVSNKALPAPIEKTISKAKGQPREPQVYTLPPSREEMTKNQVSLWCLVKGFYPSDIAVEWESNGQPENNYKTTPPVLDSDGSFFLYSKLTVDKSRWQQGNVFSCSVMHEALHNHYTQKSLSLSPGKGGGGSGGGGSGGGGSGGGGSGGGGSNGDHCPLGPGRCCRLHTVRASLEDLGWADWVLSPREVQVTMCIGACPSQFRAANMHAQIKTSLHRLKPDTVPAPCCVPASYNPMVLIQKSDTGVSLQTYDDLLAKDCHCI chain 2: not shown"
43.4 nM,73.2%,"long-acting GDF15 fusion protein ΔN2, Q90H (Fc fusion) chain 1: APALAGGPSVFLFPPKPKDTLMISRTPEVTCVVVDVSHEDPEVKFNWYVDGVEVHNAKTKPREEQYNSTYRVVSVLTVLHQDWLNGKEYKCKVSNKALPAPIEKTISKAKGQPREPQVYTLPPSREEMTKNQVSLWCLVKGFYPSDIAVEWESNGQPENNYKTTPPVLDSDGSFFLYSKLTVDKSRWQQGNVFSCSVMHEALHNHYTQKSLSLSPGKGGGGSGGGGSGGGGSGGGGSGGGGSNGDHCPLGPGRCCRLHTVRASLEDLGWADWVLSPREVQVTMCIGACPSQFRAANMHAQIKTSLHRLKPDTVPAPCCVPASYNPMVLIHKTDTGVSLQTYDDLLAKDCHCI chain 2: not shown"
